This is an account of results in paper PMC9722607 (Structure (London, England : 1993), 2022).

B1: 6x-His-tagged PqsE (wild type) (enzyme)
chain: MLRLSAPGQLDDDLCLLGDVQVPVFLLRLGEASWALVEGGISRDAELVWADLCRWVADPSQVHYWLITHKHYDHCGLLPYLCPRLPNVQVLASERTCQAWKSESAVRVVERLNRQLLRAEQRLPEACAWDALPVRAVADGEWLELGPRHRLQVIEAHGHSDDHVVFYDVRRRRLFCGDALGEFDEAEGVWRPLVFDDMEAYLESLERLQRLPTLLQLIPGHGGLLRGRLAADGAESAYTECLRLCRRLLWRQSMGESLDELSEELHRAWGGQSVDFLPGELHLGSMRRMLEILSRQALPLD

Data set [1] deals with the molecule itself. The data set is described as follows: cryo-EM structure.
Data set [2] concerns the target B1. In words: pull-down.

On to B1, for which the “stoichiometry N” value in data set [1] came out at 2.

B2: RhlR (wild type, untagged, bound to mBTL) (natural protein)
chain: MRNDGGFLLWWDGLRSEMQPIHDSQGVFAVLEKEVRRLGFDYYAYGVRHTIPFTRPKTEVHGTYPKAWLERYQMQNYGAVDPAILNGLRSSEMVVWSDSLFDQSRMLWNEARDWGLCVGATLPIRAPNNLLSVLSVARDQQNISSFEREEIRLRLRCMIELLTQKLTDLEHPMLMSNPVCLSHREREILQWTADGKSSGEIAIILSISESTVNFHHKNIQKKFDAPNKTLAAAYAAALGLI
Turning to B2, the “stoichiometry N” value in data set [1] is 2.

B3: RhlR F53A (natural protein)
chain: MRNDGGFLLWWDGLRSEMQPIHDSQGVFAVLEKEVRRLGFDYYAYGVRHTIPATRPKTEVHGTYPKAWLERYQMQNYGAVDPAILNGLRSSEMVVWSDSLFDQSRMLWNEARDWGLCVGATLPIRAPNNLLSVLSVARDQQNISSFEREEIRLRLRCMIELLTQKLTDLEHPMLMSNPVCLSHREREILQWTADGKSSGEIAIILSISESTVNFHHKNIQKKFDAPNKTLAAAYAAALGLI
With B3, in data set [2], the “efficacy of binding relative to WT RhlR” value was determined as 50%.

B4: RhlR C157S (natural protein)
chain: MRNDGGFLLWWDGLRSEMQPIHDSQGVFAVLEKEVRRLGFDYYAYGVRHTIPFTRPKTEVHGTYPKAWLERYQMQNYGAVDPAILNGLRSSEMVVWSDSLFDQSRMLWNEARDWGLCVGATLPIRAPNNLLSVLSVARDQQNISSFEREEIRLRLRSMIELLTQKLTDLEHPMLMSNPVCLSHREREILQWTADGKSSGEIAIILSISESTVNFHHKNIQKKFDAPNKTLAAAYAAALGLI
In the case of B4, the “efficacy of binding relative to WT RhlR” value in data set [2] was 70%.
